Experiment: Pharmacokinetic assay, single intravenous administration
Format: in vivo
Conditions: for Plasma drug concentration: IV 2 mg/kg
Experimental: Lines and sources: cynomolgus monkeys, Guangxi Xiongsen Primate Laboratory Animal Breeding Development Co., Ltd.
The test substance was administered in a single dose by intravenous injection.
The blood samples were collected and centrifuged to separate plasma (centrifugation conditions: 8000 rpm, 6 minutes, 2-8° C.). The contents of the label included: the subject number of Medicilon Pharmaceutical Technology (Shanghai) Co., Ltd., relevant test days, serial number of animals, date, and sampling time point. The collected plasma samples were stored in a refrigerator at ≤−65° C. before analysis. After analysis, the remaining plasma samples were stored in the refrigerator at ≤−65° C. for subsequent processing.
The biological sample analysis method and analysis of all samples were performed by the analytical laboratory of Medicilon Pharmaceutical Technology (Shanghai) Co., Ltd. Each plate in the sample analysis must contain a standard curve. At least ¾ of the points and not less than 6 non-zero concentration points (without anchor points) constituting the standard curve should meet the acceptance criteria for method validation. Each plate should also contain at least 2 sets and each set comprised at least 3 quality control samples of different concentration levels (high-concentration quality control, intermediate-concentration quality control, and low-concentration quality control).
The pharmacokinetic parameters were calculated with non-compartmental model using Phoenix pharmacokinetic software: AUC0-t, AUC0-∞, Cmax, t1/2, Tmax, C0, Cl, MRT0-∞ and Vss.

[1] = Mean of 4 animals, single IV 2 mg/kg

## Slit2D2(C386S)-HSA: Fusion protein of the Slit2 D2 domain with C386S mutation linked to human serum albumin; amino acid sequence SEQ ID NO: 3
103-Female, day 17
  Plasma drug concentration: BLQ (Below the minimum limit of quantitation)
103-Female, day 19
  Plasma drug concentration: BLQ (Below the minimum limit of quantitation)
103-Female, day 22
  Plasma drug concentration: BLQ (Below the minimum limit of quantitation)
103-Female, day 26
  Plasma drug concentration: BLQ (Below the minimum limit of quantitation)
103-Female, day 29
  Plasma drug concentration: BLQ (Below the minimum limit of quantitation)
103-Female, day 36
  Plasma drug concentration: BLQ (Below the minimum limit of quantitation)
103-Female, day 43
  Plasma drug concentration: BLQ (Below the minimum limit of quantitation)
103-Female, single IV 2 mg/kg
  AUC(0-t): 28598.53 ng·days/mL
  AUC(0-∞): 30524.24 ng·days/mL
  C0: 15377.93 ng/mL
  CL: 2.73 mL/h/kg
  Cmax: 13162.76 ng/mL
  MRT(0-∞): 61.9 h
  Tmax: 3.12 h
  Vss: 0.16888 L/kg
  t1/2: 43.7 h
104-Female, day 0.125
  Plasma drug concentration: 13541.873 ng/mL
104-Female, day 0.25
  Plasma drug concentration: 12289.107 ng/mL
104-Female, day 0.5
  Plasma drug concentration: 10597.55 ng/mL
104-Female, day 2
  Plasma drug concentration: 8296.324 ng/mL
104-Female, day 5
  Plasma drug concentration: 3663.777 ng/mL
104-Female, day 6
  Plasma drug concentration: 1433.272 ng/mL
104-Female, day 8
  Plasma drug concentration: BLQ (Below the minimum limit of quantitation)
104-Female, day 11
  Plasma drug concentration: BLQ (Below the minimum limit of quantitation)
104-Female, day 14
  Plasma drug concentration: BLQ (Below the minimum limit of quantitation)
104-Female, day 17
  Plasma drug concentration: BLQ (Below the minimum limit of quantitation)
104-Female, day 19
  Plasma drug concentration: BLQ (Below the minimum limit of quantitation)
104-Female, day 22
  Plasma drug concentration: BLQ (Below the minimum limit of quantitation)
104-Female, day 26
  Plasma drug concentration: BLQ (Below the minimum limit of quantitation)
104-Female, day 29
  Plasma drug concentration: BLQ (Below the minimum limit of quantitation)
104-Female, day 36
  Plasma drug concentration: BLQ (Below the minimum limit of quantitation)
104-Female, day 43
  Plasma drug concentration: BLQ (Below the minimum limit of quantitation)
104-Female, single IV 2 mg/kg
  AUC(0-t): 28034.90 ng·days/mL
  AUC(0-∞): 31263.33 ng·days/mL
  C0: 14922.35 ng/mL
  CL: 2.665 mL/h/kg
  Cmax: 13541.87 ng/mL
  MRT(0-∞): 50.4 h
  Tmax: 3.12 h
  Vss: 0.13446 L/kg
  t1/2: 37.4 h
[1]
  AUC(0-t): 33123.10 ng·days/mL
  AUC(0-∞): 37290.79 ng·days/mL
  C0: 14939.69 ng/mL
  CL: 2.325 mL/h/kg
  Cmax: 14117.23 ng/mL
  MRT(0-∞): 61.9 h
  Tmax: 3.84 h
  Vss: 0.14197 L/kg
  t1/2: 45.4 h
Mean, day 0.125
  Plasma drug concentration: 13871.40 ng/mL
Mean, day 0.25
  Plasma drug concentration: 13167.46 ng/mL
Mean, day 0.5
  Plasma drug concentration: 11580.80 ng/mL
Mean, day 2
  Plasma drug concentration: 8407.70 ng/mL
Mean, day 5
  Plasma drug concentration: 4603.80 ng/mL
Mean, day 6
  Plasma drug concentration: 2130.71 ng/mL
Mean, day 8
  Plasma drug concentration: 1154.63 ng/mL
Single IV 2 mg/kg
  Observation during the test (morbidity, damage, death rate, food and water supply): No abnormal findings
  ratio of AUC(0-∞) between male and female: 1.41
  ratio of Cmax between male and female: 1.11
  ratio of t1/2 between male and female: 1.24
